This is an account of results in the RNAGym collection of RNA variant scans (doi:10.1093/molbev/msab373).

The chains are these.
B1: Azoarcus group I ribozyme (parent)
chain: GUGCCUUGCGCCGGGAAACCACGCAAGGGAUGGUGUCAAAUUCGGCGAAACCUAAGCGCCCGCCCGGGCGUAUGGCAACGCCGAGCCAAGCUUCGGCGCCUGCGCCGAUGAAGGUGUAGAGACUAGACGGCACCCACCUAAGGCAAACGCUAUGGUGAAGGCAUAGUCCAGGGAGUGGCGAAAGUCACACAAACCGG

Variants of B1 are the subject of the data set. Put plainly: reverse-splicing fitness (ratio to wild type); higher = more active; in vitro selection; Mg2+ level not given. An outline of the steps:
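An in vitro group I ribozyme library with randomized positions was T7-transcribed and gel-purified. In triplicate, 10 pmol RNA in EPPS pH 7.5 was reacted with 50 pmoles of a 30-nt RNA substrate for 1 h at 37 °C across several added MgCl2 levels (1–48 mM), then stopped with EDTA. Products were reverse transcribed from a substrate-complementary primer, PCR-amplified and sequenced (HiSeq 4000). Fitness is a variant's read proportion after selection over that before, normalised to wild type.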
GUGCCUUGCGCCGGGAAACCACGCAAGGGAUGGUGUCAAAUUCGGCGAAACCUAAGCGCCCGCCCGGGCGUAUGGCAACGCGGAGCCAAGCUUCGGCGCCUGCGCCGAUGAAGGUGUAGUGACUAGACGGCACCCACCUAAGGCAAACGCUAUGGUGAAGGCAUAGUCGAGGGAGCGGCGAAAGUCACACAAACCGG [C82G A120U C169G U176C]: the reverse-splicing fitness was found to be 0.00322.
As for GUGCCUUGCGCCGGGAAACCACGCAAGGGAUGGUGUCAAAUUCGGCGAAACCUAAGCGCCCGCCCGGGCGUAUGGCAACGCUGAGCCAAGCUUCGGCGCCUGCGCCGAUGGAGGUGUAGUGACUAGACGGCACCCACCUAAGGCUAACGCUAUGGUGAAGGCAUAGUCUAGGGAGCGGCGAAAGUCACACAAACCGG [C82U A111G A120U A145U C169U U176C], the reverse-splicing fitness is 0.00254.
In the case of GUGCCUUGCGCCGGGAAACCACGCAAGGGAUGGUGUCAAAUUCGGCGAAACCUAAGCGCCCGCCCGGGCGUAUGGCAACGCAGAGCCAAGCUUCGGCGCCUGCGCCGAUGAAGGUGUAGUGACUAGACGGCACCCACCUAAGGCAAACGUUAUGGUGAAGGCAUAGUCCAGGGAGAGGCGAAAGUCACACAAACCGG [C82A A120U C150U U176A], the reverse-splicing fitness was 0.0194.
Turning to GUGCCUUGCGCCGGGAAACCACGCAAGGGAUGGUGUCAAAUUCGGCGAAACCUAAGCGCCCGCCCGGGCGUAUGGCAACGCGGAGCCAAGCUUCGGCGCCUGCGCCGAUGUAGGUGUAGCGACUAGACGGCACCCACCUAAGGCGAACGUUAUGGUGAAGGCAUAGUCAAGGGAGUGGCGAAAGUCACACAAACCGG [C82G A111U A120C A145G C150U C169A], the reverse-splicing fitness amounted to 0.0111.
Regarding GUGCCUUGCGCCGGGAAACCACGCAAGGGAUGGUGUCAAAUUCGGCGAAACCUAAGCGCCCGCCCGGGCGUAUGGCAACGCGGAGCCAAGCUUCGGCGCCUGCGCCGAUGCAGGUGUAGGGACUAGACGGCACCCACCUAAGGCAAACGUUAUGGUGAAGGCAUAGUCAAGGGAGGGGCGAAAGUCACACAAACCGG [C82G A111C A120G C150U C169A U176G], the reverse-splicing fitness was determined as 0.00607.
Take GUGCCUUGCGCCGGGAAACCACGCAAGGGAUGGUGUCAAAUUCGGCGAAACCUAAGCGCCCGCCCGGGCGUAUGGCAACGCAGAGCCAAGCUUCGGCGCCUGCGCCGAUGUAGGUGUAGGGACUAGACGGCACCCACCUAAGGCAAACGUUAUGGUGAAGGCAUAGUCGAGGGAGUGGCGAAAGUCACACAAACCGG [C82A A111U A120G C150U C169G]: the reverse-splicing fitness was 0.0105.
With GUGCCUUGCGCCGGGAAACCACGCAAGGGAUGGUGUCAAAUUCGGCGAAACCUAAGCGCCCGCCCGGGCGUAUGGCAACGCAGAGCCAAGCUUCGGCGCCUGCGCCGAUGCAGGUGUAGAGACUAGACGGCACCCACCUAAGGCAAACGCUAUGGUGAAGGCAUAGUCCAGGGAGCGGCGAAAGUCACACAAACCGG [C82A A111C U176C], the reverse-splicing fitness was determined as 0.102.
Consider GUGCCUUGCGCCGGGAAACCACGCAAGGGAUGGUGUCAAAUUCGGCGAAACCUAAGCGCCCGCCCGGGCGUAUGGCAACGCUGAGCCAAGCUUCGGCGCCUGCGCCGAUGAAGGUGUAGGGACUAGACGGCACCCACCUAAGGCGAACGGUAUGGUGAAGGCAUAGUCGAGGGAGGGGCGAAAGUCACACAAACCGG [C82U A120G A145G C150G C169G U176G], for which the reverse-splicing fitness amounted to 0.00523.
The same measure for GUGCCUUGCGCCGGGAAACCACGCAAGGGAUGGUGUCAAAUUCGGCGAAACCUAAGCGCCCGCCCGGGCGUAUGGCAACGCCGAGCCAAGCUUCGGCGCCUGCGCCGAUGGAGGUGUAGAGACUAGACGGCACCCACCUAAGGCAAACGGUAUGGUGAAGGCAUAGUCGAGGGAGGGGCGAAAGUCACACAAACCGG [A111G C150G C169G U176G]: 0.00539; for GUGCCUUGCGCCGGGAAACCACGCAAGGGAUGGUGUCAAAUUCGGCGAAACCUAAGCGCCCGCCCGGGCGUAUGGCAACGCGGAGCCAAGCUUCGGCGCCUGCGCCGAUGCAGGUGUAGUGACUAGACGGCACCCACCUAAGGCUAACGUUAUGGUGAAGGCAUAGUCUAGGGAGUGGCGAAAGUCACACAAACCGG [C82G A111C A120U A145U C150U C169U]: 0.00397.
On to GUGCCUUGCGCCGGGAAACCACGCAAGGGAUGGUGUCAAAUUCGGCGAAACCUAAGCGCCCGCCCGGGCGUAUGGCAACGCCGAGCCAAGCUUCGGCGCCUGCGCCGAUGGAGGUGUAGGGACUAGACGGCACCCACCUAAGGCAAACGGUAUGGUGAAGGCAUAGUCGAGGGAGAGGCGAAAGUCACACAAACCGG [A111G A120G C150G C169G U176A], for which the reverse-splicing fitness was determined as 0.0075.
Take GUGCCUUGCGCCGGGAAACCACGCAAGGGAUGGUGUCAAAUUCGGCGAAACCUAAGCGCCCGCCCGGGCGUAUGGCAACGCUGAGCCAAGCUUCGGCGCCUGCGCCGAUGGAGGUGUAGCGACUAGACGGCACCCACCUAAGGCCAACGUUAUGGUGAAGGCAUAGUCCAGGGAGUGGCGAAAGUCACACAAACCGG [C82U A111G A120C A145C C150U]: the reverse-splicing fitness came to 0.0145.
Under GUGCCUUGCGCCGGGAAACCACGCAAGGGAUGGUGUCAAAUUCGGCGAAACCUAAGCGCCCGCCCGGGCGUAUGGCAACGCAGAGCCAAGCUUCGGCGCCUGCGCCGAUGUAGGUGUAGAGACUAGACGGCACCCACCUAAGGCUAACGGUAUGGUGAAGGCAUAGUCCAGGGAGAGGCGAAAGUCACACAAACCGG [C82A A111U A145U C150G U176A] stands 0.01; under GUGCCUUGCGCCGGGAAACCACGCAAGGGAUGGUGUCAAAUUCGGCGAAACCUAAGCGCCCGCCCGGGCGUAUGGCAACGCCGAGCCAAGCUUCGGCGCCUGCGCCGAUGAAGGUGUAGCGACUAGACGGCACCCACCUAAGGCAAACGGUAUGGUGAAGGCAUAGUCAAGGGAGAGGCGAAAGUCACACAAACCGG [A120C C150G C169A U176A], 0.0108; under GUGCCUUGCGCCGGGAAACCACGCAAGGGAUGGUGUCAAAUUCGGCGAAACCUAAGCGCCCGCCCGGGCGUAUGGCAACGCAGAGCCAAGCUUCGGCGCCUGCGCCGAUGCAGGUGUAGUGACUAGACGGCACCCACCUAAGGCUAACGAUAUGGUGAAGGCAUAGUCGAGGGAGAGGCGAAAGUCACACAAACCGG [C82A A111C A120U A145U C150A C169G U176A], 0.003.
